Experimental findings from US20050170334A1 are described below.

Holding throughout (assay): ELISA, peptide coated, antibody 10 µg/ml
(In general: In an ELISA, binding on a coated surface is turned into a signal by an enzyme label.)

The target of assay [1] is M15 (influenza A virus).
Assay [2] has as its target NM17 (influenza A virus).
Assay [3] addresses NM15 (influenza A virus).
The target of assay [4] is NM16 (influenza A virus).
Assay [5] has as its target M16 (influenza A virus).
Assay [6] addresses M2 peptide (extracellular 23-amino-acid M2 peptide) (influenza A virus).

B1: C40G1 (antibody, V domains shown)
VH: QLQLQESGPGLVKPSETLSLTCTVSGGSISSSFYYCGWIRQPPGKGLEWIGSIYYRGSTYYNPSLKSRVTISVDTSKNQFSLKLSSVTAADTAVYYCARRVTMVRGVKGDYFDYWGQGTLVTVSS
VL: DIQMTQSPSSLSASVGDRVTITCRASQGISSWLAWYQQKPEKVPKSLIYAASSLQSGVPSRFSGSGSGTDFTLTISSLQPEDFATYYCQQYNYYPLTFGGGTKVEIKR
B1: the ELISA (OD450) came to 2.73 OD450 in assay [1]; 2.41 OD450 in assay [2]; 2.51 OD450 in assay [3]; 2.37 OD450 in assay [4]; 2.64 OD450 in assay [5]; 2.56 OD450 in assay [6].
